Experimental findings from paper PMC6748615 are described below.

The target in test [1] is biotinylated human FcRn (human) (UniProt P55899). Put plainly: FcRn affinity chromatography.
Test [2] deals with Human CD16a (FcγRIIIa-V158) (human) (UniProt P08637). Put plainly: SPR.
Test [3] addresses biotinylated human FcRn (human) (UniProt P55899). Description: SPR.
A further test deals with rat FcRn (rat) (UniProt P13599). Put plainly: SPR.
In test [4] the target is biotinylated human FcRn (human) (UniProt P55899). Description: SPR. The source holds these as a separate data set.
The target is the same in test [5].
In test [6] the target is biotinylated cynomolgus FcRn (cynomolgus) (UniProt Q8SPV9).
Another test has as its target mAb1 M252Y. Description: BLI.
The next test has as its target mAb1 N434F. Put plainly: BLI.
A further test deals with mAb1 N434Y. Description: BLI.

Read-outs that look alike come from different tables or passages of the source.

UniProt P55899, sequence (P55899 24-297, chain 1 of 2): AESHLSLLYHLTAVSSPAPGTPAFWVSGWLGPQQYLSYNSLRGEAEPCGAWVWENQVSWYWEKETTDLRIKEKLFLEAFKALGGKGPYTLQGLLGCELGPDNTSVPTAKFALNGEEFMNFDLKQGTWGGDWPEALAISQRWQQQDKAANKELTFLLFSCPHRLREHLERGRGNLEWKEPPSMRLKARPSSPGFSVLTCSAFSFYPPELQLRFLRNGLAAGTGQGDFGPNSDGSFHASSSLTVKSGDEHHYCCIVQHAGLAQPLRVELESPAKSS
UniProt P55899, sequence (P61769 21-119, chain 2 of 2, further chain): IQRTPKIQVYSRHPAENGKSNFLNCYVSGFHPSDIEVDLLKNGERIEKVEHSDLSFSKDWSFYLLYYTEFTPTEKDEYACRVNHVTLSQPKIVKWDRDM
UniProt Q8SPV9, sequence (Q8SPV9 24-297, chain 1 of 2): as the sequence (P55899 24-297, chain 1 of 2) above, with N39D, E44Q, G99S, S189G, S190N, L217M, S269T counted along it
UniProt Q8SPV9, sequence (Q8SPW0 21-119, chain 2 of 2, further chain): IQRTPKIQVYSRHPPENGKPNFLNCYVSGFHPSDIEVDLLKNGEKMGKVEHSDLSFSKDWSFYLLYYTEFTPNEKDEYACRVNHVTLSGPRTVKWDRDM

As to mAb1 AAA (T307A/E380A/N434A) (antibody), in test [1], the elution pH came out at 7.94 pH. For the same molecule, in [2], the affinity fold change vs WT was 0.89 fold. In test [3], the Kd came to 1780 nM; the koff came to 0.144 s⁻¹; the association rate constant (kon) came out at 83700 M⁻¹ s⁻¹; the steady state RU, pH 7.4 turned out to be 13.9 RU. In the test with rat FcRn (rat), this molecule gave a Kd of 77 nM and a steady state RU, pH 7.4 of 23.6 RU.
In [1], mAb1 E380C (antibody) came in with an elution pH of 7.18 pH. Besides, the Kd with rat FcRn (rat) was 6310 nM.
Molecule mAb1 K288D (antibody) gave an elution pH in test [1] of 7.33 pH. Further, the Kd in the test with rat FcRn (rat) worked out at 149 nM.
For mAb1 K288N (antibody), in that order: 7.39 pH and 190 nM.
As for mAb1 LS (M428L/N434S) (antibody), in test [4], the steady state RU, pH 7.4 was 18.5 RU. Moreover, in test [1], the elution pH was 8.29 pH. In [2], the affinity fold change vs WT turned out to be 1.04 fold. In test [3], this molecule gave a Kd of 272 nM; a koff of 0.052 s⁻¹; a kon of 193000 M⁻¹ s⁻¹; a steady state RU, pH 7.4 of 18.3 RU. In the test with rat FcRn (rat), this molecule gave an equilibrium dissociation constant (Kd) of 74 nM and a steady state RU, pH 7.4 of 24.8 RU.
The molecule mAb1 M252Y (antibody) came in with an elution pH in test [1] of 7.88 pH. For the same molecule, the Kd in [3] was determined as 3100 nM; in the test with rat FcRn (rat), 25 nM.
As for mAb1 MDQN (DQ: T256D/T307Q) (antibody), in test [1], the elution pH stood at 7.92 pH. The steady state RU in test [2] worked out at 103 RU. In test [3], this molecule had a Kd of 232 nM; a koff of 0.872 s⁻¹; a kon of 37600 M⁻¹ s⁻¹; a steady state RU, pH 7.4 of 10.7 RU. In the test with rat FcRn (rat), this molecule registered a Kd of 9.54 nM and a steady state RU, pH 7.4 of 39.1 RU.
For mAb1 MDWN (DW: T256D/T307W) (antibody), the elution pH in test [1] worked out at 7.92 pH. The same molecule displayed a steady state RU in test [2] of 126 RU. In test [3], the Kd was found to be 169 nM; the koff came out at 0.892 s⁻¹; the kon came out at 52900 M⁻¹ s⁻¹; the steady state RU, pH 7.4 is 12.2 RU. In the test with rat FcRn (rat), this molecule had a Kd of 8.24 nM and a steady state RU, pH 7.4 of 42.1 RU.
Turning to mAb1 N434F (antibody), in test [3], the Kd came out at 165 nM and the steady state RU, pH 7.4 stood at 20.1 RU. Also, in the test with rat FcRn (rat), the Kd was 26 nM and the steady state RU, pH 7.4 came out at 54.9 RU.
Turning to mAb1 N434P (antibody), the elution pH in test [1] turned out to be 7.56 pH. This molecule displayed a Kd with rat FcRn (rat) of 194 nM.
In [1], mAb1 N434Y (antibody) gave an elution pH of 8.46 pH. In test [2], the affinity fold change vs WT was 1.41 fold. In test [3], the Kd worked out at 137 nM; the koff was found to be 0.052 s⁻¹; the kon came to 359000 M⁻¹ s⁻¹; the steady state RU, pH 7.4 was 22.6 RU. In the test with rat FcRn (rat), this molecule registered a Kd of 23 nM and a steady state RU, pH 7.4 of 47 RU.
Consider mAb1 T256D (antibody), for which the elution pH in [1] was determined as 7.82 pH. The Kd in test [3] turned out to be 6700 nM; in the test with rat FcRn (rat), 86 nM.
For mAb1 T256E (antibody), the elution pH in test [1] is 7.63 pH. In addition, in the test with rat FcRn (rat), the Kd was found to be 113 nM.
For mAb1 T307A (antibody), in that order: 7.61 pH and 132 nM.
The molecule mAb1 T307E (antibody) registered an elution pH in test [1] of 7.58 pH. Moreover, in test [3], the Kd was 8130 nM, the koff came to 0.298 s⁻¹ and the on-rate (kon) was 43700 M⁻¹ s⁻¹. Besides, the Kd with rat FcRn (rat) worked out at 141 nM.
mAb1 T307F (antibody) had an elution pH in test [1] of 7.61 pH. Moreover, in the test with rat FcRn (rat), the Kd came to 131 nM.
For mAb1 T307M (antibody), in that order: 7.4 pH and 279 nM.
For the molecule mAb1 T307Q (antibody), the elution pH in test [1] worked out at 7.86 pH. The affinity fold change vs WT in [2] worked out at 1 fold. In test [3], this molecule yielded a Kd of 5720 nM, a koff of 0.215 s⁻¹ and a kon of 39600 M⁻¹ s⁻¹. The molecule further came in with a Kd with rat FcRn (rat) of 58 nM.
In test [1], mAb1 T307W (antibody) showed an elution pH of 7.75 pH. For the same molecule, the results for the Kd (in [3]; with rat FcRn (rat)) were 8740 nM and 111 nM, respectively.
In test [1], mAb1 WT (model IgG1) (antibody) gave an elution pH of 7.37 pH. Further, the affinity fold change vs WT in test [2] was 1 fold. Further, in test [3], the Kd worked out at 2380 nM, the koff worked out at 0.386 s⁻¹ and the kon is 162000 M⁻¹ s⁻¹. Moreover, the Kd in the test with rat FcRn (rat) worked out at 207 nM.
In [1], mAb1 Y436H (antibody) registered an elution pH of 7.33 pH. For the same molecule, in the test with rat FcRn (rat), the Kd came to 131 nM.
The corresponding values for mAb1 Y436N (antibody) are 7.22 pH and 233 nM.
Regarding mAb1 Y436W (antibody), the elution pH in test [1] was 7.39 pH. The molecule further showed a dissociation constant (Kd) with rat FcRn (rat) of 1140 nM.
On to “mAb1 YDQN (M252Y/T256D/T307Q) (antibody)”, for which the elution pH in [1] is 8.51 pH. For the same molecule, the steady state RU in test [2] is 59.2 RU. In test [3], this molecule showed a Kd of 115 nM; a koff of 0.282 s⁻¹; a kon of 24600 M⁻¹ s⁻¹; a steady state RU, pH 7.4 of 19.8 RU. In the test with rat FcRn (rat), this molecule returned a Kd of 5.12 nM and a steady state RU, pH 7.4 of 65.2 RU.
In the case of mAb1 YDTN (YD: M252Y/T256D) (antibody), in test [1], the elution pH was 8.29 pH. Also, in test [2], the steady state RU was 67.7 RU. In test [3], this molecule had a Kd of 93.6 nM; a koff of 0.593 s⁻¹; a kon of 63300 M⁻¹ s⁻¹; a steady state RU, pH 7.4 of 9.7 RU. In the test with rat FcRn (rat), this molecule came in with a Kd of 5.86 nM and a steady state RU, pH 7.4 of 56 RU.
On to “mAb1 YEQN (M252Y/T256E/T307Q) (antibody)”, for which the elution pH in [1] turned out to be 8.12 pH. This molecule gave a steady state RU in test [2] of 43.5 RU. Further, in test [3], the Kd is 218 nM; the koff turned out to be 0.405 s⁻¹; the kon was 18500 M⁻¹ s⁻¹; the steady state RU, pH 7.4 worked out at 15.2 RU. Besides, in the test with rat FcRn (rat), the dissociation constant Kd was determined as 7.76 nM and the steady state RU, pH 7.4 stood at 61.8 RU.
Turning to mAb1 YETN (M252Y/T256E) (antibody), in [1], the elution pH turned out to be 7.83 pH. The same molecule returned a steady state RU in test [2] of 58.5 RU. In [3], the Kd amounted to 128 nM; the koff amounted to 0.757 s⁻¹; the kon worked out at 59200 M⁻¹ s⁻¹; the steady state RU, pH 7.4 came to 9.8 RU. In the test with rat FcRn (rat), the Kd stood at 8.43 nM and the steady state RU, pH 7.4 stood at 55.1 RU.
On to mAb1 YTE (M252Y/S254T/T256E) (antibody), for which the steady state RU, pH 7.4 in [4] worked out at 13.1 RU. The molecule further registered an elution pH in test [1] of 8.14 pH. Also, the affinity fold change vs WT in test [2] is 0.52 fold. In [3], this molecule had a Kd of 342 nM; a kon of 143000 M⁻¹ s⁻¹; a steady state RU, pH 7.4 of 13.2 RU. This molecule came in with a steady state RU, pH 7.4 in the test with rat FcRn (rat) of 53.9 RU.
Consider mAb1 YTWN (M252Y/T307W) (antibody), for which, in test [1], the elution pH was 8.14 pH. The same molecule came in with a steady state RU in test [2] of 67.5 RU. In test [3], this molecule registered a Kd of 118 nM; a kon of 48300 M⁻¹ s⁻¹; a steady state RU, pH 7.4 of 15.9 RU. In the test with rat FcRn (rat), the Kd was determined as 5.21 nM and the steady state RU, pH 7.4 was found to be 66.1 RU.
mAb2 DQ (T256D/T307Q) (antibody) had a plasma elimination half-life t1/2 in hFcRn Tg32 transgenic mice, 2.5 mg/kg i.v. in test [5] of 24.5 days.
As for mAb2 DW (T256D/T307W) (antibody), in test [6], the plasma elimination half-life t1/2 in cynomolgus monkeys, 2.5 mg/kg i.v. stood at 20.4 days. This molecule came in with a plasma elimination half-life t1/2 in hFcRn Tg32 transgenic mice, 2.5 mg/kg i.v. in [5] of 20.1 days.
The corresponding values for mAb2 YD (M252Y/T256D) (antibody) are 23.5 days and 17.5 days.

B1: rat FcRn (receptor)
chain 1: AEPRLPLMYHLAAVSDLSTGLPSFWATGWLGAQQYLTYNNLRQEADPCGAWIWENQVSWYWEKETTDLKSKEQLFLEAIRTLENQINGTFTLQGLLGCELAPDNSSLPTAVFALNGEEFMRFNPRTGNWSGEWPETDIVGNLWMKQPEAARKESEFLLTSCPERLLGHLERGRQNLEWKEPPSMRLKARPGNSGSSVLTCAAFSFYPPELKFRFLRNGLASGSGNCSTGPNGDGSFHAWSLLEVKRGDEHHYQCQVEHEGLAQPLTVDLDSPARSS
chain 2: IQKTPQIQVYSRHPPENGKPNFLNCYVSQFHPPQIEIELLKNGKKIPNIEMSDLSFSKDWSFYILAHTEFTPTETDVYACRVKHVTLKEPKTVTWDRDM
For the molecule B1, the fold slower off rate than WT in the test with mAb1 M252Y, in the test with mAb1 N434F and with mAb1 N434Y was over 1.8 fold each time.
